Laboratory results from PMC10083542.

What was measured:
Assay in all cases: EMSA
[1] = test system: T1, Dcp1 (Saccharomyces cerevisiae); details: EMSA: 10 nM Alexa Fluor 647 RPL41A RNA, 300 mM KOAc, 10 mM MES pH 7 or 5.8, 5 mM BME; temperature not given in material
T1 sequence: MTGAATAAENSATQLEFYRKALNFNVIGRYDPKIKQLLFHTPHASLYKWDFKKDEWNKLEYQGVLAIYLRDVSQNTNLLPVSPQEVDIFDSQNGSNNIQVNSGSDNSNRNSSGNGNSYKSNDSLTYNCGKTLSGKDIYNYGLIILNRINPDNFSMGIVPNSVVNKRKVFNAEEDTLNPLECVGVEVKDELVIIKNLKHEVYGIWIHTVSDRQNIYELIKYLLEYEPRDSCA

[2] = test system: T2, Dcp2 (Saccharomyces cerevisiae); details: EMSA: 10 nM Alexa Fluor 647 RPL41A RNA, 300 mM KOAc, 10 mM MES pH 7 or 5.8, 5 mM BME, temperature not given in material
T2 sequence: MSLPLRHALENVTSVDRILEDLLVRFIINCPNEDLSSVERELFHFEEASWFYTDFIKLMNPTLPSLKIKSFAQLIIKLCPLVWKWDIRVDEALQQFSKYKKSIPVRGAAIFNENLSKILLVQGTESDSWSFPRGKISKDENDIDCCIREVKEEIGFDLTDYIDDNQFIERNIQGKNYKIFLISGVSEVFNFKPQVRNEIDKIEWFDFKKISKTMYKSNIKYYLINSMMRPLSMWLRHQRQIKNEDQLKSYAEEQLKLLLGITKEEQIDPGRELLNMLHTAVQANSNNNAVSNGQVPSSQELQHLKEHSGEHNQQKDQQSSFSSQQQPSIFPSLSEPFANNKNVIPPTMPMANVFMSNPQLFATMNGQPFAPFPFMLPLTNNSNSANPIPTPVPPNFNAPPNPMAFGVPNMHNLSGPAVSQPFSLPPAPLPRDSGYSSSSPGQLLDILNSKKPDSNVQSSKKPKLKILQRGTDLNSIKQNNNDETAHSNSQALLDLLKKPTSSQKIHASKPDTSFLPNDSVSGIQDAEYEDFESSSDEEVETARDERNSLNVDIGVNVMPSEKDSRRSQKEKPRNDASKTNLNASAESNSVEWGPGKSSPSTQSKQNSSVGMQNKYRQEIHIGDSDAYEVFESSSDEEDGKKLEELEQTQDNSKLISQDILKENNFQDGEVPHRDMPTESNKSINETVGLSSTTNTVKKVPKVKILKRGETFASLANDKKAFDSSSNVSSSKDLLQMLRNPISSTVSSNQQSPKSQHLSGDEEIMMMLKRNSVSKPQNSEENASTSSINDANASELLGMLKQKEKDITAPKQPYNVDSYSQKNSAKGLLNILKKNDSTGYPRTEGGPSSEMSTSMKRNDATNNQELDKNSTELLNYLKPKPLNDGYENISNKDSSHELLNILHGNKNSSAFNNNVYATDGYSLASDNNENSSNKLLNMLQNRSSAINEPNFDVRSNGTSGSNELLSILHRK

[3] = test system: T3, Dcp2 1-300 (Saccharomyces cerevisiae); details: EMSA: 10 nM Alexa Fluor 647 RPL41A RNA, 300 mM KOAc, 10 mM MES pH 7 or 5.8, 5 mM BME; temperature not given in material
T3 sequence: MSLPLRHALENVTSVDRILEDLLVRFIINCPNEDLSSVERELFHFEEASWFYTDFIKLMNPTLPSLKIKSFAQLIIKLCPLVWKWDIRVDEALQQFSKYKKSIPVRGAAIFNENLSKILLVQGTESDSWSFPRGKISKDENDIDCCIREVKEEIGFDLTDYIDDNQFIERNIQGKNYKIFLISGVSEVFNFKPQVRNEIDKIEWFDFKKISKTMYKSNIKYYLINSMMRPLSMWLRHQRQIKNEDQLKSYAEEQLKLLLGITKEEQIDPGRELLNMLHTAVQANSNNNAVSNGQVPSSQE

[4] = test system: Dcp2 H237A (Saccharomyces cerevisiae); details: pH 5.8; EMSA: 10 nM Alexa Fluor 647 RPL41A RNA, 300 mM KOAc, 10 mM MES pH 7 or 5.8, 5 mM BME; temperature not given in material

Substance: RPL41A RNA (60 nt)
- Kd [1]: > 20 µM
- binding signal (fold tighter at pH 5.8 than at pH 7) [2]: > 16
- Kd [3]: > 20 µM
- binding signal (fold lower affinity than wild type) [4]: 2
